Source: the Human Domainome abundance scans (Beltran et al. 2025)

B1: DnaJ homolog subfamily C member 2, residues 451 to 503; numbered along this chain, Q99543 (parent)
chain: SKNWSEDDLQLLIKAVNLFPAGTNSRWEVIANYMNIHSSSGVKRTAKDVIGKA

Variants of: B1
Assay: abundance fitness (aPCA) (normalised: wild type 0, dead -1); higher = more abundant; growth selection in yeast, the domain comes from the species named
Details: Homo sapiens

Abundance fitness: each site, then its substitutions
P20: A -0.571 | E -0.358 | D -0.13 | M -0.955 | R -0.392 | C -0.555 | F -0.984 | H -0.228 | Q -0.328 | S -0.411 | T -0.607 | N -0.292 | G -0.103 | I -0.961
F19: H -0.093 | A -0.536 | E -1.06 | P -1.11 | Q -0.86 | R -0.91 | L -0.602 | T -0.456 | Y -0.178 | I -0.29 | C -0.586 | W -0.215 | K -0.961 | D -0.948 | N -0.803 | V -0.102 | S -0.622 | M -0.572
L12: Y -0.168 | R -0.796 | S -0.802 | V -0.511 | D -0.97 | A -0.617 | I -0.456 | P -0.719 | M -0.223 | N -0.875 | G -0.779 | K -0.97 | W -0.177 | C -0.667 | T -0.907 | E -0.952 | Q -0.894
L11: I 0.007 | F -0.382 | P -0.891 | Y -0.579 | V -0.37 | D -0.802 | R -0.536 | K -0.747 | M -0.229 | G -0.819 | Q -0.632 | S -0.582
N17: A -0.085 | Y -0.194 | D 0.12 | Q -0.157 | F -0.353 | T -0.016 | R -0.036 | L -0.216 | K -0.043 | V -0.161 | H -0.158 | W -0.348 | I -0.384 | P -0.875 | G -0.082 | S -0.061
L18: S -0.273 | Q -0.38 | G -0.53 | E -0.305 | H -0.272 | C -0.222 | Y -0.173 | V -0.108 | K -0.268 | M 0.065 | P -0.807 | R -0.145 | D -0.332 | T -0.054 | I -0.073 | W -0.547 | F -0.219 | A 0.043
K14: I -0.296 | F -0.006 | Y -0.207 | N -0.274 | M -0.226 | G -0.243 | Q -0.308 | P -0.971 | A -0.026 | C -0.274 | H -0.05 | D -0.054 | W -0.602 | E -0.096 | V -0.196 | R -0.088 | L -0.317 | S -0.225
V16: M 0.065 | Q 0.168 | W -0.268 | H -0.25 | N -0.071 | G -0.266 | K 0.18 | E -0.042 | C -0.186 | D -0.371 | S -0.054 | I 0.08 | L -0.067 | A -0.164 | R 0.002 | Y -0.028 | P -1.04
I13: T -0.141 | C -0.147 | N -0.097 | P -0.537 | A 0.14 | F 0.039 | E -0.006 | H 0.042 | W 0.058 | R 0.086 | Y -0.038 | V -0.033 | S 0.073 | K 0.053 | Q 0.131 | M 0.021 | L 0.085 | D 0.142 | G 0.099
A15: N -0.984 | G -0.182 | V -0.511 | Y -0.688 | D -0.777 | T -0.519 | I -0.982 | L -0.61 | P -0.724 | C -0.279 | F -0.847 | H -0.754 | Q -1.03 | R -0.994 | E -0.965 | S -0.214 | W -0.682 | M -0.83
